Assays:
[1] = mouse, in vivo
Procedure: At two hours post injection, agent is in the blood and interstitium. By 24 hours post injection, tumors are becoming apparent as agent is being cleared. At 48 hours, labeling is highly tumor selective. […] By surface fluorescence, as with SPECT, labeling is highly tumor selective at 48 hours. Biodistribution as organ radioactivity concentrations FIG. 26(c) and total organ radioactivity FIG. 26(d) were obtained by dissection and ^111In counting at 24 hours and 48 hours post injection. Even at 48 hours post injection some 7.5% of injected dose is in the blood, with less than 5% in liver, even though the diameter of PN(783)10.0 exceeds that of albumin (6.7 nm). Data are means and standard deviations. […] By 72 hours, some 17% of injected dose was retained, approximately half of which was still in the blood based on FIG. 26d.

HT-29 tumor = assay type: in vivo, mouse
Description: (§1) A Kodak FX multispectral imaging system was used (Carestream Molecular Imaging, Rochester, N.Y.). Excitation at multiple wavelengths (620, 650, 690, 710, 720, 730, 750 and 760 nm) with the emission at 830 nm was setup for IR-783 spectrum; Excitation at multiple wavelengths (420, 440, 460, 480, 510, 520, 530, and 540 nm) with the emission at 600 nm was setup for Cy3 spectrum; Excitation at multiple wavelengths (450, 470, 510, 520, 530, 540, 550, 570, and 590 nm) with the emission at 700 nm was setup for mCherry; with manufacturer's software to separate (unmix) the IR-783 spectrum, Cy3 spectrum, or mCherry spectrum from skin autofluorescence and chlorophyll fluorescence from food. X-ray images were taken after fluorescence images. Animals were anesthetized with 2% isoflurane with O2 flow (2 I/min) during imaging.
Female nude mice (25-30 g; 6-8 weeks old; nu/nu) were anesthetized with 2% isoflurane/O2. HT-29 or mCherry-HT-29 cells were detached, pelleted and 200 μl of cell suspension containing 10^6 cells in Matrigel (BD Bioscience) was injected subcutaneously into right and left shoulders. Tumors were allowed to grow 5-7 days before experiments.
The imaging was performed by Triumph II multimodality imaging system (Gamma Medica Ideas, LLC) comprising XSPECT with four CZT (Cadmium Zink Telluride) detectors and X-O CT with CMOS detector. SPECT data of the ^111In-labeled compound was acquired for 60 minutes using 5-pinhole collimators and processed with 3D-OSEM algorithm using 4 subsets and 5 iterations. 3-dimensional CT data was processed with modified Feldkamp software. […] Animals were under isoflurane anesthesia (1.5%) with O2 flow (1.5 l/min) and kept warm during the imaging with a heated animal bed.
150 μl of ^111In-labeled PN(783)10 (400 μCi, ˜2 nmole) were injected to tumor-bearing animals by tail vein (IV). 24 hours or 48 hours later, animals were sacrificed, and tumors, blood, liver, spleen, stomach, kidneys, small intestine, lung, heart, tail, fat, and muscle, were collected. Radioactivity was measured with Perkin Elmer, Wizard2 2480 gamma counter.

[2] = test system: HT-29, a human colon carcinoma cell line; test: PN and peptide binding to cells (non-specific binding, FACS); assay type: cell-based; conditions: HT-29 cells, 30 min at 37° C., FACS
How it was run: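 Cells seeded at 5×10^5 cells/well the day before, then rinsed and incubated 30 min at 37 °C in 2% FBS/DPBS (+Ca, +Mg) with nanoprobes (added as a 2 μM solution; concentration set spectrophotometrically via dye extinction coefficients). After trypsin/EDTA detachment, cell-associated fluorescence was read by FACS.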

[3] = Whole animal surface fluorescence after IV injection (elimination); assay type: in vivo, mouse; conditions: bladder at 20 minutes, vs (DOTA)Lys-Cys(IR-783) peptide
Description: as §1

[4] = Blood half-life from serum fluorescence after tail injection; assay type: in vivo; conditions: mouse, IV; single decay constant fit
Procedure: Using these procedures and PEG's of different molecular weights, PEG-like NIR fluorochromes of different molecular weights, volumes and pharmacokinetics were synthesized, with results summarized in Table 3B. Blood half-lives were determined by tail injection into mice and measuring serum fluorescence as a function of time. Data (fluorescence versus time) were fit to a single decay constant equation to yield blood half-lives. Human pharmacokinetics will be far slower than that of mice.

Substance: (DOTA)Lys(PEG30K)-Cys(IR-783) [PN(783)10.0]
- injected dose retained (whole animal) [1]: ~17%
- tumor retention (EPR) by SPECT and surface fluorescence (HT-29 tumor; HT29 tumor, 48 hours): retained in the tumor
- injected dose in the blood (HT-29 tumor; mouse, in vivo): ~7.5%
- injected dose in the liver (HT-29 tumor; mouse, in vivo): less than 5%
- Cell NSB (percent of cells with fluorescence higher than unstained cell) [2]: 18%

Substance: (DOTA)Lys(PEG5K)-Cys(IR-783) [PN(783)4.3]
- fluorochrome elimination after IV injection [3]: enhanced fluorochrome elimination
- Serum half-life [4]: 13.1 min
- Cell NSB (percent of cells with fluorescence higher than unstained cell) [2]: 20%

From patent US20150258217A1, “Methods of Synthesizing and Using Peg-Like Fluorochromes” (THE GENERAL HOSPITAL CORPORATION, priority 2012, published 2015)
